Test results published in patent publication US20250340643A1 (AstraZeneca / MedImmune, published 2025).
Where two headings read alike, the source gives them in different places.

T1: CTLA4 on the cells of the reporter gene bioassay (human, UniProt P16410 36-223)
T1 sequence (looked up): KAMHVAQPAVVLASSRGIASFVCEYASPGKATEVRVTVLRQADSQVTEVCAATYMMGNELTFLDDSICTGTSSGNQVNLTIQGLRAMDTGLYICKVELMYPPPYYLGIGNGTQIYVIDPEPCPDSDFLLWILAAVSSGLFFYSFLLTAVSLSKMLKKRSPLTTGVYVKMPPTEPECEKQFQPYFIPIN


Experiments:
[1] = target: T2, recombinant FcRn (UniProt P55899 24-297; P61769 21-119, limits assumed); assay: SPR, recombinant FcRn immobilized on the sensor; relative to Reference Standard
T2 construct: also called Neonatal Fc Receptor
Text: (§1) A surface plasmon resonance binding assay was used to measure FcRn binding. This method is based on the ability of the test sample to bind to recombinant FcRn that has been immobilized on an SPR sensor surface. A reference flow cell was created using the same standard amine coupling procedure without the addition of FcRn.

[2] = target: T1, CTLA4 on the cells of the reporter gene …; assay: cell-based or functional assay
[3] = target: T2, recombinant FcRn; assay: SPR, recombinant FcRn immobilized on the sensor; relative to Reference Standard; remark: listed apart in the source
Text: as §1

[4] = target: T1, CTLA4 on the cells of the reporter gene …; assay: cell-based or functional assay; remark: listed apart in the source

Binder	Relative FcRn Binding (%) [1] [%]	Relative Potency (%) [2] [%]	Relative FcRn Binding (%) [3] [%]	Relative Potency (%) [4] [%]
Tremelimumab, cool white light about 2000 lux for 14 days, DP (2R vial vertical) (antibody, human IgG2, kappa, oxidation by peptide mapping: Trp-52 5.4%, Met-256 7.1%, Met-362 2.2%, Met-401 2.5%, Met-432 4.7%) heavy: QVQLVESGGGVVQPGRSLRLSCAASGFTFSSYGMHWVRQAPGKGLEWVAVIWYDGSNKYYADSVKGRFTISRDNSKNTLYLQMNSLRAEDTAVYYCARDPRGATLYYYYYGMDVWGQGTTVTVSSASTKGPSVFPLAPCSRSTSESTAALGCLVKDYFPEPVTVSWNSGALTSGVHTFPAVLQSSGLYSLSSVVTVPSSNFGTQTYTCNVDHKPSNTKVDKTVERKCCVECPPCPAPPVAGPSVFLFPPKPKDTLMISRTPEVTCVVVDVSHEDPEVQFNWYVDGVEVHNAKTKPREEQFNSTFRVVSVLTVVHQDWLNGKEYKCKVSNKGLPAPIEKTISKTKGQPREPQVYTLPPSREEMTKNQVSLTCLVKGFYPSDIAVEWESNGQPENNYKTTPPMLDSDGSFFLYSKLTVDKSRWQQGNVFSCSVMHEALHNHYTQKSLSLSPGK light: not shown	94	90		
Tremelimumab, photo-stress study according to ICH guideline, Dark control (antibody, human IgG2, kappa, oxidation by peptide mapping: Trp-52 3.3%, Met-256 2.8%, Met-362 1.3%, Met-401 1.3%, Met-432 0.6%) heavy: QVQLVESGGGVVQPGRSLRLSCAASGFTFSSYGMHWVRQAPGKGLEWVAVIWYDGSNKYYADSVKGRFTISRDNSKNTLYLQMNSLRAEDTAVYYCARDPRGATLYYYYYGMDVWGQGTTVTVSSASTKGPSVFPLAPCSRSTSESTAALGCLVKDYFPEPVTVSWNSGALTSGVHTFPAVLQSSGLYSLSSVVTVPSSNFGTQTYTCNVDHKPSNTKVDKTVERKCCVECPPCPAPPVAGPSVFLFPPKPKDTLMISRTPEVTCVVVDVSHEDPEVQFNWYVDGVEVHNAKTKPREEQFNSTFRVVSVLTVVHQDWLNGKEYKCKVSNKGLPAPIEKTISKTKGQPREPQVYTLPPSREEMTKNQVSLTCLVKGFYPSDIAVEWESNGQPENNYKTTPPMLDSDGSFFLYSKLTVDKSRWQQGNVFSCSVMHEALHNHYTQKSLSLSPGK light: not shown	91	107		
Tremelimumab incubated with 100 ppm H2O2 for 4 days (antibody, human IgG2, kappa, oxidation by peptide mapping: Met-256 79.8%, Met-362 36.3%, Met-401 63.7%, Met-432 53.0%) heavy: QVQLVESGGGVVQPGRSLRLSCAASGFTFSSYGMHWVRQAPGKGLEWVAVIWYDGSNKYYADSVKGRFTISRDNSKNTLYLQMNSLRAEDTAVYYCARDPRGATLYYYYYGMDVWGQGTTVTVSSASTKGPSVFPLAPCSRSTSESTAALGCLVKDYFPEPVTVSWNSGALTSGVHTFPAVLQSSGLYSLSSVVTVPSSNFGTQTYTCNVDHKPSNTKVDKTVERKCCVECPPCPAPPVAGPSVFLFPPKPKDTLMISRTPEVTCVVVDVSHEDPEVQFNWYVDGVEVHNAKTKPREEQFNSTFRVVSVLTVVHQDWLNGKEYKCKVSNKGLPAPIEKTISKTKGQPREPQVYTLPPSREEMTKNQVSLTCLVKGFYPSDIAVEWESNGQPENNYKTTPPMLDSDGSFFLYSKLTVDKSRWQQGNVFSCSVMHEALHNHYTQKSLSLSPGK light: not shown			24	98
Tremelimumab, cool white light about 2000 lux for 14 days, DP (2R vial, horizontal) (antibody, human IgG2, kappa, oxidation by peptide mapping: Trp-52 6.4%, Met-256 7.8%, Met-362 2.5%, Met-401 2.7%, Met-432 5.4%, also called DP (2R vial, horizontal) 14) heavy: QVQLVESGGGVVQPGRSLRLSCAASGFTFSSYGMHWVRQAPGKGLEWVAVIWYDGSNKYYADSVKGRFTISRDNSKNTLYLQMNSLRAEDTAVYYCARDPRGATLYYYYYGMDVWGQGTTVTVSSASTKGPSVFPLAPCSRSTSESTAALGCLVKDYFPEPVTVSWNSGALTSGVHTFPAVLQSSGLYSLSSVVTVPSSNFGTQTYTCNVDHKPSNTKVDKTVERKCCVECPPCPAPPVAGPSVFLFPPKPKDTLMISRTPEVTCVVVDVSHEDPEVQFNWYVDGVEVHNAKTKPREEQFNSTFRVVSVLTVVHQDWLNGKEYKCKVSNKGLPAPIEKTISKTKGQPREPQVYTLPPSREEMTKNQVSLTCLVKGFYPSDIAVEWESNGQPENNYKTTPPMLDSDGSFFLYSKLTVDKSRWQQGNVFSCSVMHEALHNHYTQKSLSLSPGK light: not shown	92	97		

Now from value to binder:

Relative FcRn Binding (%) [1] [%]	Relative Potency (%) [2] [%]	Relative FcRn Binding (%) [3] [%]	Relative Potency (%) [4] [%]	Binder
98	102			Tremelimumab, photo-stress study at 2000 lux, t = 0 control (antibody, human IgG2, kappa, oxidation by peptide mapping: Trp-52 0.7%, Met-256 3.3%, Met-362 1.4%, Met-401 1.6%, Met-432 1.0%) heavy: QVQLVESGGGVVQPGRSLRLSCAASGFTFSSYGMHWVRQAPGKGLEWVAVIWYDGSNKYYADSVKGRFTISRDNSKNTLYLQMNSLRAEDTAVYYCARDPRGATLYYYYYGMDVWGQGTTVTVSSASTKGPSVFPLAPCSRSTSESTAALGCLVKDYFPEPVTVSWNSGALTSGVHTFPAVLQSSGLYSLSSVVTVPSSNFGTQTYTCNVDHKPSNTKVDKTVERKCCVECPPCPAPPVAGPSVFLFPPKPKDTLMISRTPEVTCVVVDVSHEDPEVQFNWYVDGVEVHNAKTKPREEQFNSTFRVVSVLTVVHQDWLNGKEYKCKVSNKGLPAPIEKTISKTKGQPREPQVYTLPPSREEMTKNQVSLTCLVKGFYPSDIAVEWESNGQPENNYKTTPPMLDSDGSFFLYSKLTVDKSRWQQGNVFSCSVMHEALHNHYTQKSLSLSPGK light: not shown
78	87			Tremelimumab, photo-stressed, DP 1x ICH (antibody, human IgG2, kappa, oxidation by peptide mapping: Trp-52 10.9%, Met-256 12.1%, Met-362 3.8%, Met-401 4.1%, Met-432 11.9%) heavy: QVQLVESGGGVVQPGRSLRLSCAASGFTFSSYGMHWVRQAPGKGLEWVAVIWYDGSNKYYADSVKGRFTISRDNSKNTLYLQMNSLRAEDTAVYYCARDPRGATLYYYYYGMDVWGQGTTVTVSSASTKGPSVFPLAPCSRSTSESTAALGCLVKDYFPEPVTVSWNSGALTSGVHTFPAVLQSSGLYSLSSVVTVPSSNFGTQTYTCNVDHKPSNTKVDKTVERKCCVECPPCPAPPVAGPSVFLFPPKPKDTLMISRTPEVTCVVVDVSHEDPEVQFNWYVDGVEVHNAKTKPREEQFNSTFRVVSVLTVVHQDWLNGKEYKCKVSNKGLPAPIEKTISKTKGQPREPQVYTLPPSREEMTKNQVSLTCLVKGFYPSDIAVEWESNGQPENNYKTTPPMLDSDGSFFLYSKLTVDKSRWQQGNVFSCSVMHEALHNHYTQKSLSLSPGK light: not shown
41	59			Tremelimumab, photo-stressed, DP 3x ICH (antibody, human IgG2, kappa, oxidation by peptide mapping: Trp-52 36.7%, Met-256 41.9%, Met-362 12.8%, Met-401 15.8%, Met-432 34.6%) heavy: QVQLVESGGGVVQPGRSLRLSCAASGFTFSSYGMHWVRQAPGKGLEWVAVIWYDGSNKYYADSVKGRFTISRDNSKNTLYLQMNSLRAEDTAVYYCARDPRGATLYYYYYGMDVWGQGTTVTVSSASTKGPSVFPLAPCSRSTSESTAALGCLVKDYFPEPVTVSWNSGALTSGVHTFPAVLQSSGLYSLSSVVTVPSSNFGTQTYTCNVDHKPSNTKVDKTVERKCCVECPPCPAPPVAGPSVFLFPPKPKDTLMISRTPEVTCVVVDVSHEDPEVQFNWYVDGVEVHNAKTKPREEQFNSTFRVVSVLTVVHQDWLNGKEYKCKVSNKGLPAPIEKTISKTKGQPREPQVYTLPPSREEMTKNQVSLTCLVKGFYPSDIAVEWESNGQPENNYKTTPPMLDSDGSFFLYSKLTVDKSRWQQGNVFSCSVMHEALHNHYTQKSLSLSPGK light: not shown
